In patent US11091512B2, “Modulation of antigen immunogenicity by deleting epitopes recognized by NKT cells” (Imnate Sarl, priority 2010, dated 2021):

System: CD4+ T cells and NKT cells
Assay: peripheral blood CD4+ T cells cultured with human dendritic cells loaded with natural or mutated antibody
Type: cell-based
Conditions: 5 to 7 days culture
From the text: Monoclonal human antibodies of the IgG4 isotype were derived from the peripheral blood B lymphocytes by transformation with the Epstein-Barr virus. The genomic sequence of such antibodies was obtained from transformed B cells. A viral vector containing the corresponding cDNA sequence was constructed and used for transfection of CHO cells. All these methods are known in the art (see for instance, Jacquemin et al Blood 92: 496-506, 1998).
The hydrophobic aminoacid residues located in position 1 in the peptides of SEQ ID18 and SEQ ID20 were mutated to a serine and the mutated antibody produced by transfected CHO cells.
Peripheral blood CD4+ T cells obtained as above were exposed in culture medium to human dendritic cells (derived from human peripheral blood monocytes by methods known in the art) and loaded with either the antibody in natural configuration (SEQ ID21) or its mutated counterpart (SEQ ID22). After culturing the cells with CD4+ T cells for 5 to 7 days, the population of CD4+ T cells activated by either natural or mutated antibody was evaluated. CD4+ NKT cells were separated from CD4+ T cells using an antibody to NKG2D, a surface marker associated with NK or NKT cells only.

B1: SEQ ID22: mutated counterpart of the IgG4 antibody, position 1 residues of SEQ ID18 and SEQ ID20 motifs mutated to serine (protein, listed as Homo sapiens)
chain: ASTKGPSVFPLAPCSRSTSESTAALGCLVKDYFPEPVTVSWNSGALTSGVHTFPAVLQSSGLYSLSSVVTVPSSSLGTKTYTCNVDHKPSNTKVDKRVESKYGPPCPSCPAPEFLGGPSVFLFPPKPKDTLMISRTPEVTCVVVDVSQEDPEVQFNWYVDGVEVHNAKTKPREEQFNSTSRVVSVLTVLHQDWLNGKEYKCKVSNKGLPSSIEKTISKAKGQPREPQVYTLPPSQEEMTKNQVSLTCLVKGFYPSDIAVEWESNGQPENNYKTTPPVLDSDGSFFLYSRLTVDKSRWQEGNVFSCSVMSEALHNHYTQKSLSLSLGK
- activation of class II restricted CD4+ T cells: only activate class II restricted CD4+ T cells
- activation of NKT cells (NKT cells separated with antibody to NKG2D): not NKT cells
